Drawing on patent US20240165163A1, this text covers Circuit Expression (inducible BFP reporter) for one substance.

The experiment concerns the target human CD19 (human) (UniProt P15391). As to the kind of experiment: cell-based or functional assay.
Chain of UniProt P15391 (P15391 20-556): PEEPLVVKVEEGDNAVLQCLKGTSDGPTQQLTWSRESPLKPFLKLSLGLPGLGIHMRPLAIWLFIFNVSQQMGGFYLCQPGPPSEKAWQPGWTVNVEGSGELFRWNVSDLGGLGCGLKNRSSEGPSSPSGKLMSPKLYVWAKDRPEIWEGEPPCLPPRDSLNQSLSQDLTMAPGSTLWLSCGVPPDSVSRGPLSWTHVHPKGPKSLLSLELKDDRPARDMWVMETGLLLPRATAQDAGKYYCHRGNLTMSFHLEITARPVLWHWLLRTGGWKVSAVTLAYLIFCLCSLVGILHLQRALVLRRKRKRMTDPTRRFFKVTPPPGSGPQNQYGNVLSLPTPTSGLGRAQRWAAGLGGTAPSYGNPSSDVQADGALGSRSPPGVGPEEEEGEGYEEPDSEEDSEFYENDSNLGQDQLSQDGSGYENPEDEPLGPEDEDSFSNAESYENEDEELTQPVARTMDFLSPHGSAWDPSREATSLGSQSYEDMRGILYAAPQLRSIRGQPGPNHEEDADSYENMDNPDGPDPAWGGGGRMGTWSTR

The substance “antiCD19scFv-CD8Hinge2-Notch1TMD-Notch2STS-truncCD28delTPRRP-CD3z-Gal4VP64 (receptor)” had a Circuit Expression (inducible BFP reporter) above 80%.
